PMC9979629 (Antiviral Research, 2023)
Residue numbers refer to the chain shown, from its start.

B1: K102.1 (antibody, V domains shown)
VH: EVQLLESGGGLVQPGGSLRLSCAASGFTFSDYAMSWVRQAPGKGLEWVSWIYSGSGNKYYADSVKGRFTISRDNSKNTLYLQMNSLRAEDTAVYYCARFPIARTSNSQSSYDGMDVWGQGTLVTVSS
VL: QSVLTQPPSASGTPGQRVTISCSGSSSNIGSNAVSWYQQLPGTAPKLLIYADNKRPSGVPDRFSGSKSGTSASLAISGLRSEDEADYYCGAWDSSLNAYVFGGGTKLTVL
B2: K102.2 (antibody, V domains shown)
VH: EVQVLESGGGLVQPGGSLRLSCAASGFTFSSYDMSWVRQAPGKGLEWVSGISYSGGSTYYADSVKGRFTISRDNSKNTLYLQMNSLRAEDTAVYYCARDVNFVPLVTFDYWGQGTLVTVSS
VL: B1 VL with I20L, S23T, A33S, S35T, A51D, K54Q, A91T, S94Y, N97S

Target: His-tagged wild-type SARS-CoV-2 RBD (SARS-CoV-2, UniProt P0DTC2)
Test: ELISA

Binder	binding result
B1	binds
B2	binds
